B1: FLAG-human APRIL (ligand)
chain: DYKDDDDKGPGQVQLQKQKKQHSVLHLVPINATSKDDSDVTEVMWQPALRRGRGLQAQGYGVRIQDAGVYLLYSQVLFQDVTFTMGQVVSREGQGRQETLFRCIRSMPSHPDRAYNSCYSAGVFHLHQGDILSVIIPRARAKLNLSPHGTFLGFVKL
notes: Made from plasmid ps429 (p1448) in 293T cells; also called FLAG-hAPRIL; FLAG-h APRIL

Experiments:
hCD40-Fc = target: T1, hCD40-Fc (human, UniProt P25942 21-193, limits assumed); assay: ELISA, receptor-Fc coated, FLAG-tagged ligand detected with anti-FLAG M2
T1 construct: not shown: Fc part

FLAG-human APRIL = target: B1; assay: immunoprecipitation from conditioned media with ProtG-Sepharose, anti-FLAG M2 blot
Procedure: (§1) Immunoprecipitation experiments: 293T cells were transfected with indicated expression plasmid (Rec-Fc or flag ligand) in 9 cm plate. Transfected cells were left for 5d in 8 ml Optimem media (Gibco-BRL). Immunoprecipitation were performed by mixing 200 ul of each receptor-conditioned media with 200 ul of each ligand-conditioned media+400 ul PBS+10 ul ProtG-Sepharose. These were rotated 1 h on a wheel, washed 4× with 1 ml PBS, then boiled in 50 ul sample buffer (+DTT). 20 ul of each immunoprecipitation was loaded per lane. Reveal blotting was done with 1 ug/ml anti-FLAG M2 mAb (Sigma, St Louis Mo.) and anti-mouse PO (1/2000). A reprobe blot with anti-human-PO was also checked: 100 ul conditioned media was precipitated with MeOH/CHC13/lysozyme. This mix was boiled in 50 ul sample buffer (+DTT) and 20 ul was loaded. A Reveal blot was performed with anti-FLAG mAb M2 (1 ug/ml) and anti-mouse-PO (1/2000).

FLAG-hBAFF = target: T2, FLAG-hBAFF (human, UniProt Q9Y275 136-285, limits assumed); assay: as above
T2 construct: also called hKayL-440 (hBAFF); hKayL-440; not shown: FLAG tag
Procedure: as §1

T2 sequence (Q9Y275 136-285 limits assumed): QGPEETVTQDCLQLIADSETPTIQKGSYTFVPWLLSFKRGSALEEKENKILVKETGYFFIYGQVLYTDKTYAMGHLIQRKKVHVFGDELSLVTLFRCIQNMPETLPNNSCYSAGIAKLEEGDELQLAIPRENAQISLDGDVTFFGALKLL
T1 sequence (P25942 21-193 limits assumed): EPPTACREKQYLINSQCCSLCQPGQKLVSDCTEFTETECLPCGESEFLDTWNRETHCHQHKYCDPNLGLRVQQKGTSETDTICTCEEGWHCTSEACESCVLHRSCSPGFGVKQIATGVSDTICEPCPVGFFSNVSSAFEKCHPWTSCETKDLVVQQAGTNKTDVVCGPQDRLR

binding result (hCD40-Fc)	binding result (FLAG-human APRIL)	binding result (FLAG-hBAFF)	Binder
no binding	–	–	B1
–	no binding	no binding	hTRAIN-Fc (Fc fusion, human, UniProt Q9NS68 30-170, looked up, not shown: Fc part) ESGDCRQQEFRDRSGNCVPCNQCGPGMELSKECGFGYGEDAQCVTCRLHRFKEDWGFQKCKPCLDCAVVNRFQKANCSATSDAICGDCLPGFYRKTKLVGFQDMECVPCGDPPPPYEPHCASKVNLVKIASTASSPRDTAL

Source: patent publication US20030082175A1 (Biogen, published 2003)
